Measured values taken from US7977313B2, “Methods and compositions for promoting localization of pharmaceutically active agents to bone” (Affinergy, Inc., priority 2007, dated 2011).
Read-outs that look alike come from different tables or passages of the source. Blank lines part the entries; values can stand above or below the compound they belong to. Where a SMILES comes first, the peptide text is derived from it. The star is where a group is joined. Biotin = O=C1N[C@H]2[C@H](CS[C@H]2CCCCC(=O)*)N1

Key:
[1] = biological target: T1, BMP14 (Homo sapiens, UniProt P43026); assay: ELISA-format binding to BMP family members; conditions: ELISA-format assay
T1 sequence (P43026 382-501): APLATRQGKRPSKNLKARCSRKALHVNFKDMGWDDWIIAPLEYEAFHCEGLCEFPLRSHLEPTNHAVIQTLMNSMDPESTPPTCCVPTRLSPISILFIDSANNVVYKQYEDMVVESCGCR
Description: (§1) Exemplary peptides were tested for their ability to bind with specificity to members of the BMP family in an ELISA-format assay. […] For example, BMP2-mediates transdifferentiation of C2C12 myoblasts into osteoblasts; and when treated with BMP-2, the alkaline phosphatase activity in C2C12 myoblasts was induced.

[2] = biological target: T2, BMP2 (Homo sapiens, UniProt P12643); assay: ELISA-format binding to BMP family members; conditions: ELISA-format assay
T2 sequence (P12643 283-396): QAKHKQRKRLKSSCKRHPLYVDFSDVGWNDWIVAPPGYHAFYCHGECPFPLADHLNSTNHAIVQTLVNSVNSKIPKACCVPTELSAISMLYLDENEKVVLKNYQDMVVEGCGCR
Description: as §1

[3] = biological target: T3, BMP4 (Homo sapiens, UniProt P12644); assay: ELISA-format binding to BMP family members; conditions: ELISA-format assay
T3 sequence (P12644 293-408): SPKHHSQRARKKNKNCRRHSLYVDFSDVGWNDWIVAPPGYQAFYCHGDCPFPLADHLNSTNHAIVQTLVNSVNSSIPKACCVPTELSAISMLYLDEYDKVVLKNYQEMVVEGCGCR
Description: as §1

[4] = biological target: T4, BMP7 (Homo sapiens, UniProt P18075); assay: ELISA-format binding to BMP family members; conditions: ELISA-format assay
T4 sequence (P18075 293-431): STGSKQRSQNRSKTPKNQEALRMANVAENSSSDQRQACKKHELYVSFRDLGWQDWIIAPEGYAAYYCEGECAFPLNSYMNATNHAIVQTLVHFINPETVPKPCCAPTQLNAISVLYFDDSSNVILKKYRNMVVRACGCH
Description: as §1

[5] = biological target: T5, BMP5 (Homo sapiens, UniProt P22003); assay: ELISA-format binding to BMP family members; conditions: ELISA-format assay
T5 sequence (P22003 317-454): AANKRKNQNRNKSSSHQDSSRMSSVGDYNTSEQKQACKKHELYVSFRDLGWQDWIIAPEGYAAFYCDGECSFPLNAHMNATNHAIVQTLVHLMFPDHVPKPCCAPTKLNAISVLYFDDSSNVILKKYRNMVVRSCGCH
Description: as §1

[6] = system: stem cells; conditions: cited from earlier work
[7] = system: human adipose-derived stem cells; assay: Binding to adipose-derived stem cells
Text: In another embodiment, the pharmaceutically active agent comprises a cell. Thus, a coating composition embodiment includes at least one peptide having binding specificity to bone coupled to at least one peptide having binding specificity for cells. Such coating composition may further include cells bound to the at least one peptide having binding specificity for the cells. For example, RGDX peptides wherein X is any amino acid (SEQ ID NO:119) have been described as binding stem cells, mesenchymal stem cells, and osteoblasts.

[8] = phage display; cited from earlier work
[9] = biological target: human growth hormone (Homo sapiens, UniProt P01241); conditions: cited from earlier work
human growth hormone, sequence (P01241 27-217): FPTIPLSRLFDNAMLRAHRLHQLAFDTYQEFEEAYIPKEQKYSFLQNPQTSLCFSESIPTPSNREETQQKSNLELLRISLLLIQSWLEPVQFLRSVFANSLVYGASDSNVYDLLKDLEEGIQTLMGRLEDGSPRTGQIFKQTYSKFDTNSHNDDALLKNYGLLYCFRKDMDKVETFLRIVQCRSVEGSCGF

[10] = biological target: demineralized bone matrix (DBM); assay: Biotinylated peptide binding to demineralized bone matrix (ELISA-type, streptavidin-alkaline phosphatase/pNPP); set-up: species or system human
Description: Relative binding strengths of the peptides to bone, also used as a measure of binding specificity, were determined by testing serial dilutions of the peptide for binding to bone, as represented by DBM. Plotting the absorbance observed across the concentration range for each peptide sequence yielded a binding curve of the peptides to its target substrate from which can be determined an EC50. The goal of the screenings and selections was to identify one or more peptides that bind to the selected substrate with binding specificity, with an EC50 of less than or equal to about 10 μM, and for some embodiments, in the nanomolar range (<1 μM).
As a specific example, DBM was placed in a microtiter plate at a concentration of 3 mg equivalents per well, and then the wells were blocked with buffer containing 1% BSA for 1 hour at room temperature. The buffer containing 1% BSA was then aspirated from each well, and added to the wells were the serial dilutions of biotinylated peptide. The microtiter plates were incubated for 1 hour at room temperature on a plate shaker. The DBM was then allowed to settle, and the buffer was then aspirated from the wells. The DBM was washed three times with buffer-T, and then streptavidin-alkaline phosphatase was added. The microtiter plates were incubated for 1 hour at room temperature on a plate shaker. The DBM was then allowed to settle, and the buffer was then aspirated from the wells. The DBM was washed three times with buffer-T, pNPP (p-nitrophenyl phosphate) was used to develop the assay, and the absorbance was recorded at 405 nm. An estimate of the relative affinity (binding specificity, EC50) of a peptide for bone can be made by determining the concentration of peptide that gives one-half the maximal signal in the assay.
Example 1 illustrates methods to determine the relative binding strengths of peptide to bone. […] A biotin molecule was linked to the C-terminal lysine. Also shown in Table 3 are the relative binding strengths expressed as EC50 (μM) to bone as represented by DBM of human origin. It is noted that the EC50 values were the same or substantially similar when DBM of rabbit origin was used.
Relative binding strength embodiments of the compositions to bone, also used as a measure of binding specificity, were determined by testing serial dilutions of the composition for binding to bone, as described in Example 1 Section B. Plotting the absorbance observed across the concentration range for each composition yielded a binding curve and rough dissociation constant of the composition for bone. Similar to a peptide having binding specificity for bone from which the composition is made, one property of the composition embodiments is that they bind to bone with binding specificity as measured by an EC50 of less than or equal to about 10 μM, and for some embodiments, in the nanomolar range (<1 μM). Using the methods outlined in Example 1B herein, assayed were the relative binding strengths of […] illustrative composition embodiments which include the amino acid sequences shown in SEQ ID NOs: 137, 138, 139, 140, 141 & 142, see Table 7, and synthesized to include a C-terminal amino linker which was biotinylated to facilitate determination of the relative binding strengths to bone. Shown in Table 8 are the relative binding strengths of composition embodiments to bone, as represented by DBM, expressed as EC50 (in μM).

[11] = biological target: demineralized cortical bone (DCB); assay: Biotinylated peptide binding to demineralized cortical bone
Description: (§2) Relative binding strengths of the peptides to bone, also used as a measure of binding specificity, were determined by testing serial dilutions of the peptide for binding to bone, as represented by DBM. Plotting the absorbance observed across the concentration range for each peptide sequence yielded a binding curve of the peptides to its target substrate from which can be determined an EC50. The goal of the screenings and selections was to identify one or more peptides that bind to the selected substrate with binding specificity, with an EC50 of less than or equal to about 10 μM, and for some embodiments, in the nanomolar range (<1 μM). […] As a specific example, DBM was placed in a microtiter plate at a concentration of 3 mg equivalents per well, and then the wells were blocked with buffer containing 1% BSA for 1 hour at room temperature. The buffer containing 1% BSA was then aspirated from each well, and added to the wells were the serial dilutions of biotinylated peptide. The microtiter plates were incubated for 1 hour at room temperature on a plate shaker. The DBM was then allowed to settle, and the buffer was then aspirated from the wells. The DBM was washed three times with buffer-T, and then streptavidin-alkaline phosphatase was added. The microtiter plates were incubated for 1 hour at room temperature on a plate shaker. The DBM was then allowed to settle, and the buffer was then aspirated from the wells. The DBM was washed three times with buffer-T, pNPP (p-nitrophenyl phosphate) was used to develop the assay, and the absorbance was recorded at 405 nm. An estimate of the relative affinity (binding specificity, EC50) of a peptide for bone can be made by determining the concentration of peptide that gives one-half the maximal signal in the assay. Using the methodology illustrated in Example 1, the peptides illustrated in Table 3 were also tested for relative binding strength to demineralized cortical bone, and to cancellous bone, additional evidence of binding specificity for bone.

[12] = biological target: cancellous bone (CNB); assay: Biotinylated peptide binding to cancellous bone
Description: as §2

[13] = DBM of human origin, biotinylated peptide, read-out: Binding specificity for bone (e.g., DBM) EC50
[14] = demineralized bone matrix, read-out: EC50 (μM) for DBM

Compound: 120 (ALPSTSSQMPQL) [compound 120]
Binding to stem cells [6]: binding to stem cells

Compound: 121 (SSSCQHVSLLRPSAALGPDNCSR) [compound 121]
Binding specificity for human adipose-derived stem cells [7]: has binding specificity

Compound: 123 (HTPHPDASIQGV) [compound 123]
Binding to paclitaxel [8]: bind to paclitaxel

Compound: 124 (VMNV) [compound 124]
Binding to human growth hormone [9]: found to bind to human growth hormone

Compound: CC(C)C[C@H](NC(=O)[C@@H](N)CO)C(=O)NCC(=O)N[C@H](C(=O)N[C@@H](Cc1ccccc1)C(=O)N[C@@H](Cc1c[nH]c2ccccc12)C(=O)N[C@@H](CO)C(=O)N[C@@H](CO)C(=O)N[C@H](C(=O)N[C@@H](Cc1c[nH]c2ccccc12)C(=O)N[C@@H](CCCNC(=N)N)C(=O)NCC(=O)N[C@H](C(=O)N[C@@H](CC(=O)O)C(=O)N[C@@H](C)C(=O)NCC(=O)NCC(=O)N[C@@H](CCC(=O)O)C(=O)N[C@@H](CO)C(=O)N[C@@H](CCCNC(=N)N)C(=O)NCC(=O)N[C@@H](CO)C(=O)N[C@@H](CO)C(=O)NCC(=O)N[C@@H](CCCCNC(=O)CCCC[C@@H]1SC[C@@H]2NC(=O)N[C@@H]21)C(=O)O)C(C)C)C(C)C)[C@@H](C)O [compound 43] (H-SLGTFWSSVWRGVDAGGESRGSSGK(Biotin)-OH)
EC50 [10, 13]: < 1 µM
EC50 [10, 14]: < 1 µM
EC50 [11]: < 1 µM
EC50 [12]: ≤ 1 µM

Compound: CC[C@H](C)[C@H](NC(=O)[C@H](CC(=O)O)NC(=O)[C@H](Cc1ccccc1)NC(=O)[C@@H](N)CO)C(=O)N[C@@H](CC(=O)O)C(=O)N[C@@H](Cc1c[nH]c2ccccc12)C(=O)N[C@@H](CO)C(=O)NCC(=O)N[C@@H](CCSC)C(=O)N[C@@H](CCCNC(=N)N)C(=O)N[C@@H](CO)C(=O)N[C@@H](Cc1c[nH]c2ccccc12)C(=O)N[C@@H](Cc1c[nH]c2ccccc12)C(=O)NCC(=O)N[C@@H](CO)C(=O)N[C@@H](CCCNC(=N)N)C(=O)NCC(=O)N[C@@H](CO)C(=O)N[C@@H](CO)C(=O)NCC(=O)N[C@@H](CCCCNC(=O)CCCC[C@@H]1SC[C@@H]2NC(=O)N[C@@H]21)C(=O)O [compound 44] (H-SFDIDWSGMRSWWGSRGSSGK(Biotin)-OH)
EC50 [10, 13]: < 1 µM
EC50 [10, 14]: < 1 µM
EC50 [11]: < 1 µM
EC50 [12]: < 1 µM

Further lines, results first:

Binding specificity for BMP14 [1]: showed binding specificity
Binding specificity for BMP2 [2]: showed binding specificity
Binding specificity for BMP4 [3]: showed binding specificity
Binding specificity for BMP7 [4]: showed binding specificity
Compound: 58 (SSWEVFSSLESGSVGAGAGSR) [compound 58]

Binding specificity for BMP14 [1]: displayed binding specificity
Binding specificity for BMP2 [2]: displayed binding specificity
Binding specificity for BMP4 [3]: displayed binding specificity
Binding specificity for BMP5 [5]: displayed binding specificity
Binding specificity for BMP7 [4]: displayed binding specificity
Compound: 91 (GGGAWEAFSSLSGSRV) [compound 91]

Binding specificity for BMP14 [1]: showed binding specificity
Binding specificity for BMP2 [2]: showed binding specificity
Binding specificity for BMP4 [3]: showed binding specificity
Binding specificity for BMP7 [4]: showed binding specificity
Compound: 93 (SSSVDLYFPLKGDVVSR) [compound 93]

Binding specificity for BMP14 [1]: showed binding specificity
Binding specificity for BMP2 [2]: showed binding specificity
Binding specificity for BMP4 [3]: showed binding specificity
Binding specificity for BMP7 [4]: showed binding specificity
Compound: 118 (GGALGFPLKGEVVEGWA) [compound 118]

EC50 [10, 13]: < 1 µM
EC50 [10, 14]: < 1 µM
EC50 [11]: < 1 µM
EC50 [12]: < 1 µM
Compound: CC(C)C[C@H](NC(=O)[C@H](CO)NC(=O)[C@H](CCCNC(=N)N)NC(=O)[C@H](Cc1ccccc1)NC(=O)[C@H](CC(=O)O)NC(=O)[C@H](Cc1c[nH]c2ccccc12)NC(=O)[C@@H](N)CO)C(=O)N[C@@H](CCCNC(=N)N)C(=O)N[C@@H](CC(=O)O)C(=O)N[C@@H](Cc1c[nH]c2ccccc12)C(=O)N[C@@H](Cc1c[nH]c2ccccc12)C(=O)N1CCC[C@H]1C(=O)N1CCC[C@H]1C(=O)N[C@@H](C)C(=O)N1CCC[C@H]1C(=O)N[C@@H](CO)C(=O)N[C@@H](CC(C)C)C(=O)N[C@@H](CO)C(=O)N[C@@H](CO)C(=O)N[C@@H](CCCNC(=N)N)C(=O)NCC(=O)N[C@@H](CO)C(=O)N[C@@H](CO)C(=O)NCC(=O)N[C@@H](CCCCNC(=O)CCCC[C@@H]1SC[C@@H]2NC(=O)N[C@@H]21)C(=O)O [compound 45] (H-SWDFRSLRDWWPPAPSLSSRGSSGK(Biotin)-OH)
